Assay results: the Human Domainome abundance scans (Beltran et al. 2025)
± gives the uncertainty stated by the source.

B1: Zinc finger homeobox protein 3, residues 2643 to 2698; numbered along this chain, Q15911 (parent)
chain: RLRTTITPEQLEILYQKYLLDSNPTRKMLDHIAHEVGLKKRVVQVWFQNTRARERK

Variants of: B1
Assay: abundance fitness (aPCA) (normalised: wild type 0, dead -1); higher = more abundant; growth selection in yeast, the domain comes from the species named
Conditions: Homo sapiens

Row | Variant | abundance fitness
1 | RLRTTITPEQLEILYQKYLLDSNPTRKMLDHIAHEVGLKKRVVQVEFQNTRARERK [W46E] | -1.08 ± 0.18
2 | RLRTSITPEQLEILYQKYLLDSNPTRKMLDHIAHEVGLKKRVVQVWFQNTRARERK [T5S] | -0.25 ± 0.12
3 | RLRTTITPEQLEILYQKYLLDSNPTRKMLDHIAHEVGLKKRVVQVWFQNTRARERQ [K56Q] | 0.032 ± 0.21
4 | RLRTTITPEQLEILYQKYLLDSNPTRKMLDHPAHEVGLKKRVVQVWFQNTRARERK [I32P] | -0.915 ± 0.13
5 | RLRTTITPEQLEILYQKYLLDSNPTRKMLDHDAHEVGLKKRVVQVWFQNTRARERK [I32D] | -1.02 ± 0.18
6 | RLRTTITPENLEILYQKYLLDSNPTRKMLDHIAHEVGLKKRVVQVWFQNTRARERK [Q10N] | -0.385 ± 0.08
7 | RLRTTITPEQLEILYQKYLLDSNPTRKMLDHIAHEVGLKKRVVQVWAQNTRARERK [F47A] | -0.904 ± 0.12
8 | RLRTTITPEQLEILYQKYLLDSNPTRKMLDHIAHEVGLKKRVVQVWFKNTRARERK [Q48K] | 0.096 ± 0.13
9 | RLRTTITPEQLEILYQKYLLDSNPTRMMLDHIAHEVGLKKRVVQVWFQNTRARERK [K27M] | -0.177 ± 0.11
10 | RLRTTITPEQLEILYYKYLLDSNPTRKMLDHIAHEVGLKKRVVQVWFQNTRARERK [Q16Y] | -0.436 ± 0.16
11 | RLRTTITPEQLEILYLKYLLDSNPTRKMLDHIAHEVGLKKRVVQVWFQNTRARERK [Q16L] | 0.572 ± 0.096
12 | RLRTTITPEQLEILYWKYLLDSNPTRKMLDHIAHEVGLKKRVVQVWFQNTRARERK [Q16W] | -0.615 ± 0.13
13 | RLRTTITPEQLEILYQKYLLDSNPTRKMLDHIMHEVGLKKRVVQVWFQNTRARERK [A33M] | -0.832 ± 0.14
14 | RLRTTITPEQLEILYQKYLLDSNPTRKMLDHIAHSVGLKKRVVQVWFQNTRARERK [E35S] | -0.224 ± 0.083
15 | RLRTTITPEQLEILYQKYLLDSNPTRKMLDHIAHEVGLKVRVVQVWFQNTRARERK [K40V] | 0.161 ± 0.079
16 | RLRTTITPEQLEILYQKYLLDSCPTRKMLDHIAHEVGLKKRVVQVWFQNTRARERK [N23C] | -0.594 ± 0.2
17 | RLRTTITPEQLEILYQKYLLDSFPTRKMLDHIAHEVGLKKRVVQVWFQNTRARERK [N23F] | 0.149 ± 0.18
18 | RLRTTITPEQLEILYQKYLLDSSPTRKMLDHIAHEVGLKKRVVQVWFQNTRARERK [N23S] | -0.113 ± 0.11
19 | RLRTTITPEQLEILYQKYLLDSNPTRKMLDHIAHEVGLKKRVVQHWFQNTRARERK [V45H] | -0.001 ± 0.15
20 | RLRTTITPEQLEILYQKYLLDSNPTRKMLDQIAHEVGLKKRVVQVWFQNTRARERK [H31Q] | 0.169 ± 0.15
21 | RLRTTITPEQLEILYQKYLLDSNPTRKMLDDIAHEVGLKKRVVQVWFQNTRARERK [H31D] | 0.348 ± 0.1
22 | RLRTTITPEQLEILYQKYLLDSNPTRKMLDIIAHEVGLKKRVVQVWFQNTRARERK [H31I] | 0.009 ± 0.16
23 | RLRTTITPEQLEILYQKYLLDNNPTRKMLDHIAHEVGLKKRVVQVWFQNTRARERK [S22N] | -0.273 ± 0.12
24 | RLRTTITPEQLEILYQKYLLDSNPTRKMLDHIAHEVKLKKRVVQVWFQNTRARERK [G37K] | -0.007 ± 0.12

Row | Variant | abundance fitness
25 | RLRTTITPEQLEILYQKYLLDSNPTRKMLDHIAHEVGLKKRVVQVWFQNSRARERK [T50S] | -0.202 ± 0.094
26 | RLRTTLTPEQLEILYQKYLLDSNPTRKMLDHIAHEVGLKKRVVQVWFQNTRARERK [I6L] | 0.051 ± 0.072
27 | RLRWTITPEQLEILYQKYLLDSNPTRKMLDHIAHEVGLKKRVVQVWFQNTRARERK [T4W] | -0.423 ± 0.11
28 | RLRTTITPEQLEILYQKYLLDSNPTRKMKDHIAHEVGLKKRVVQVWFQNTRARERK [L29K] | -0.695 ± 0.16
29 | RLRTTITPEQLEILYQKYLLDSNWTRKMLDHIAHEVGLKKRVVQVWFQNTRARERK [P24W] | -0.165 ± 0.088
30 | RLRTTITPEQLEILYQKYLLDSNPTRKMLDHIAHEVGLKKRVQQVWFQNTRARERK [V43Q] | -1 ± 0.16
31 | RLRTTITPSQLEILYQKYLLDSNPTRKMLDHIAHEVGLKKRVVQVWFQNTRARERK [E9S] | -0.267 ± 0.071
32 | RLRTTITPEQLLILYQKYLLDSNPTRKMLDHIAHEVGLKKRVVQVWFQNTRARERK [E12L] | -0.188 ± 0.086
33 | RLRTTITPEQLTILYQKYLLDSNPTRKMLDHIAHEVGLKKRVVQVWFQNTRARERK [E12T] | 0.041 ± 0.1
34 | RLRTTITPEQLEILYQKYLLDSNPTRKMLDHIAHEMGLKKRVVQVWFQNTRARERK [V36M] | -0.427 ± 0.18
35 | RLRTTITPEQLEILYQKYHLDSNPTRKMLDHIAHEVGLKKRVVQVWFQNTRARERK [L19H] | -0.14 ± 0.15
36 | RLRTTITPEQLEILYQKYMLDSNPTRKMLDHIAHEVGLKKRVVQVWFQNTRARERK [L19M] | 0.039 ± 0.13
37 | RLRTTITPEQLEILYQWYLLDSNPTRKMLDHIAHEVGLKKRVVQVWFQNTRARERK [K17W] | -0.056 ± 0.095
38 | RLRTTITPEQLEILYQKYLLDSNPWRKMLDHIAHEVGLKKRVVQVWFQNTRARERK [T25W] | -0.951 ± 0.13
39 | RLRTTITPEQLEILYQKYLLDSNPIRKMLDHIAHEVGLKKRVVQVWFQNTRARERK [T25I] | -0.502 ± 0.14
40 | RLRTTITPEQLEILYQKYLLDSNPTRKMLDHIAHEVGLWKRVVQVWFQNTRARERK [K39W] | -0.77 ± 0.11
41 | RLRTTITPEQLEILWQKYLLDSNPTRKMLDHIAHEVGLKKRVVQVWFQNTRARERK [Y15W] | 0.072 ± 0.096
42 | RLRTTITPEQLEILCQKYLLDSNPTRKMLDHIAHEVGLKKRVVQVWFQNTRARERK [Y15C] | -0.368 ± 0.13
43 | RLRTTITPEQLEILYQKYLLDSNPTRKMLDHIAHEVGLKKRVVQVWFQNTRAEERK [R53E] | 0.288 ± 0.11
44 | RLRTTITPEQLEILYQKYLLDSNPTRKMLPHIAHEVGLKKRVVQVWFQNTRARERK [D30P] | -0.543 ± 0.12
45 | RLRTTITPEQLEILYQKYLLDSNPTRKMLDHIAHEVGLKKRVVQVWFQNTRLRERK [A52L] | -0.317 ± 0.086
46 | RLRTTITPEQLEILYQKYLLDSNPTRKMLDHIAHEVGLKKRVVQVWFQNTMARERK [R51M] | 0.098 ± 0.11
47 | RLRTTITPEQLEILYQKYLLDSNPTLKMLDHIAHEVGLKKRVVQVWFQNTRARERK [R26L] | 0.266 ± 0.081
